Measurements: US20240173377A1 (EPIVAX, published 2024)

Key:
Test in all cases: competition HLA binding assay: soluble HLA, labeled control peptide, capture on anti-human DR antibody, time-resolved fluorescence
HLA DRB1*1301 = target: T1, HLA DRB1*1301 (human)
T1 construct: Described only as a soluble HLA molecule; also called soluble HLA molecule

HLA DRB1*1101 = target: T2, HLA DRB1*1101 (human)
T2 construct: Described only as a soluble HLA molecule; also called soluble HLA molecule

HLA DRB1*0701 = target: T3, HLA DRB1*0701 (human)
T3 construct: Described only as a soluble HLA molecule; also called soluble HLA molecule

HLA DRB1*0301 = target: T4, HLA DRB1*0301 (human)
T4 construct: Described only as a soluble HLA molecule; also called soluble HLA molecule

HLA DRB1*0101 = target: T5, HLA DRB1*0101 (human)
T5 construct: Described only as a soluble HLA molecule; also called soluble HLA molecule

HLA DRB1*0401 = target: T6, HLA DRB1*0401 (human)
T6 construct: Described only as a soluble HLA molecule; also called soluble HLA molecule

Measured: binding result

B1: SEQ ID NO 115 (peptide)
peptide: ILTIHFTGHSFIYGK
notes: L-amino acid Tregitope, assayed alongside its retro-inverso counterpart
binds: all assays above

B2: SEQ ID NO 114 (peptide)
peptide: EEQYNSTYTVVSVLTVLHQD
notes: as for B1
binds: all assays above
